Laboratory results as given in paper PMC11384727.

Target: PKM2 (pcDNA3.1(+)-PKM2, transfected) (human) (UniProt P14618)
Assay: cross-linking

Sequence of PKM2 (pcDNA3.1(+)-PKM2, transfected), P14618 1-531 (enzyme; other documents disagree on this pair) (P14618 whole entry): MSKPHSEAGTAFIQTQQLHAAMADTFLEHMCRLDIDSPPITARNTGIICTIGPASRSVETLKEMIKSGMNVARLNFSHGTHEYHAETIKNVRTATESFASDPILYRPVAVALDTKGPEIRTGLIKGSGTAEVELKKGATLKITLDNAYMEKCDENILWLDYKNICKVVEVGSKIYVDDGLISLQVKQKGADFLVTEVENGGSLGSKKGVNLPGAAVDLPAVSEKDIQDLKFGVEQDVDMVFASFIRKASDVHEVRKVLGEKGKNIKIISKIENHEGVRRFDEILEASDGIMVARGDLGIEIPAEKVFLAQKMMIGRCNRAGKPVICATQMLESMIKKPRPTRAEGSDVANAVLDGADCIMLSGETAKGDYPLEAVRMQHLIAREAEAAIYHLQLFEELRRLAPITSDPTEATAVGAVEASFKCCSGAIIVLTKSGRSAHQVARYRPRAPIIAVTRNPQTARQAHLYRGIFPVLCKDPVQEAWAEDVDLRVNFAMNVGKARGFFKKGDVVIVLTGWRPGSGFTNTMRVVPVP

stoichiometry N: 2
Substance: PKM2 (pcDNA3.1(+)-PKM2, transfected), P14618 1-531 (enzyme; other documents disagree on this pair)
